Laboratory results as given in the nanobody polyreactivity screen of Harvey et al. (2022).

Assay: yeast display, Sf9 membrane polyspecificity reagent, FACS + sequencing; frameworks hold sequencing errors
In short: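 Polyreactivity labels are assigned by the sorting gate from which each nanobody was recovered. The gates were low and high (top ~1%), set on anti-HA fluorescence for expression and streptavidin fluorescence for reagent binding. Before sorting, galactose-induced (36–48 hours) yeast display cells were stained for 1 hour at 4 °C with 10% biotinylated, detergent-solubilized Sf9 membrane reagent.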

| Sequence | polyreactivity (PSR sort gate) |
| --- | --- |
| QVQLVDSGGGLVQAGGSLRLSCAASGRTFLSMGWYRQAPGKERELVAAISRTNYADSVKGRFTISRDNAKNTVYLQMNSLKPEDTAVYYCAAVPKYGRYVRIGYPNDYWGQGTQVTVSS | low polyreactivity |
| QVQLVDSGGGLVQAGGSLRLSCAASGRTFPSYVMGWYRQAPGKERELVAAISWSGGSTSYADSVKGRFTISRDNAKNTVYLQMNSLKPEDTAVYYCNADRRPGGDYWGQGTQVTVSS | low polyreactivity |
| QVQLVDSGGGLVQAGGSLRLSCAASGRTFWYYDMGWYRQAPGKERELVATINNVGSTHYADSVKGRFTISRDNAKNTVYLQMNSLNPEDTAVYYCARASYGKMDYWGQGTQLTVSS | high polyreactivity |
| QVQLVDSGGGLVQAGGSLRLSCAASGRTFWYYTMGWYRQAPGKEREFVAAIRGSGTSTYYADSVKARFTISRDNEKNTVYLQMNSLKPEDTAVYYCAAESPVYHLVTYDYWGQGTQVTVSS | high polyreactivity |
| QVQLVDSGGGLVQAGGSLRLSCAASGRTFYTYAMGWYRVAPGKEWELVAAITGGGSTTYADSVKGRFTISRDNAKNTVYLQMNSLKPEDTEVYYCAALIYGPERVVDEYDYWGQGTQVTVSS | low polyreactivity |
| QVQLVDSGGGLVQAGGSLRLSCAASGRTVRYYTMGWYRQAPGKERELVAAISNAASTNYADSVKGRFTISRDNAKNTVYLQMNSLKPEDTAVYYCNAYLHYRAGHPRGYHNRYYYWGQGTQVTVSS | high polyreactivity |
| QVQLVDSGGGLVQAGGSLRLSCAASGSIFHANAMGWYRQAPGKERELVAVISQGGGSTYYADSVKGRFTISRDNAKNTVYLQMNSLKPEDTAVYYCAAYYYYSAYGDDYWGQGTQVTVSS | high polyreactivity |
| QVQLVDSGGGLVQAGGSLRLSCAASGSIFHVYAMGWYRQAPGKERELFAAIDRSGGSTYYADSVKGRFTISRDNAKNTVYLQMNSLKPEDTAVFYCAKDVLGGLITDGVGNDYWGQGTQLTVSS | low polyreactivity |
| QVQLVDSGGGLVQAGGSLRLSCAASGSIFPKNAMGWYRPAPGKERELVAAISSGGGGTYYADSVKGRFTISRDNAKNTVYLQMNSLKPEDTAVFYCNKRDGNGGNTKYDYWGQGTQVTVSS | low polyreactivity |
| QVQLVDSGGGLVQAGGSLRLSCAASGSIFRRNAMGWYRQAPGKERELVAAITRSGSGTSYADSVKGRFTISLDNAKNTVYLQMNSLKPEDTAVYYCNAAYVYGDQARGGYWGQGTQVTVSS | high polyreactivity |
| QVQLVDSGGGLVQAGGSLRLSCAASGSIFTDNAMGWYIQAPGKERDLVAAITGRGGNTYYADSLKGRFPISRDNAKNTVYLQMNSLKPEDTAVYYCAARIFRTRKPLGYWGQGTQVTVSS | high polyreactivity |
| QVQLVDSGGGLVQAGGSLRLSCAASGSIFVKYAMGWYRQAPGKERELVAAISWRGGSTYYADSVKGRFTISRDNAKNTVYLQMNSLKPEDTAVYYCAKYPGISGYNYWGQGTQVTVSS | high polyreactivity |
| QVQLVDSGGGLVQAGGSLRLSCAASGSIFWIYSMGWYRQAPGKERELVATISRGGSTYADSVKGRFTISRDNAKNTVYLQMNSLKPEDTPVYYCAARAFAGNQQAYYYWGQGTQVTVSS | high polyreactivity |
| QVQLVDSGGGLVQAGGSLRLSCAASGSIILVNAMGWYRQAPGKEREFVAAISTSSGSTYYADSVKGRFTISRDNAKNTVYLQMNSLKPEDTAVYYCAADEVYSRGIWPVEDDYWGQGSQVTVSS | low polyreactivity |
| QVQLVDSGGGLVQAGGSLRLSCAASGSILGGNAMGWYRQAPGKERELVAAITFSGGGTYYADSVKGRFTISRDHAKNTVYLQMNSLKPEDTAVYYCAADKDGYTYEFDYWGQGTQVTVSS | low polyreactivity |
| QVQLVDSGGGLVQAGGSLRLSCAASGSILNNYAMGWYRQARGKERELVAAISSSGGTNYADSVKGRFTISRDNAKNTVYLQMNSLKPEDTAVYYCYADVLDGGYDYWGQGTQVTESS | low polyreactivity |
| QVQLVDSGGGLVQAGGSLRLSCAASGSIYSSYAMGWYRQAPGKERELVASISSGGSKNYADSVKGRFTISRVNAKNTVYLQMNSLKPEDTAFYYCNVDLYNWRGDYTGYDYWGQGTQVTVSS | low polyreactivity |
| QVQLVDSGGGLVQAGGSLRLSCAASGSPFTTYAMGWYRQAPGTERELVAAISTNGGRTFYSDSVKGRFTISRDNAKNSVYLQMNSLKPEDTALYYCAAEYDLYAPGYYYWGEGTQVTVSS | low polyreactivity |
| QVQLVDSGGGLVQAGGSLRLSCAASGSTCYYYNMGWYRQSPWKERELVAAISFIGGSTYYADSVKGRFTISRDNAKYTVYLQMNSLTPEDTAVFYCAAEFYRWGSLSFSNDYWGQGTQVTVSS | low polyreactivity |
| QVQLVDSGGGLVQAGGSLRLSCAASGSTFLYHAMGWYRQAPGKERELLAAINSGTSTTYADSVKGRFTISRDNAKNRVYLQMNSLNPEDTAVYYCAADYYYVNYYGYYTLFDFDYWGQGTQVTVSS | low polyreactivity |
| QVQLVDSGGGLVQAGGSLRLSCAASGSTFLYYSMGWYTQAPGKERELVAVISWSGVSTYYADSVKGRFTISRDNAKNSVYLQMNSLKPEDTAVYYCNTGNHYIRTYGYWGQGTQVTVSW | low polyreactivity |

| Sequence | polyreactivity (PSR sort gate) |
| --- | --- |
| QVQLVDSGGGLVQAGGSLRLSCAASGSTFQPYAMGWYRQAPGKERELVAAIRYSGGITYYADSVKGRFTISRDNAKNTVYLQMNSLKPEDTAVYYCAAYGFYGGDYWGQGTQVTVSS | high polyreactivity |
| QVQLVDSGGGLVQAGGSLRLSCAASGSTFRGYDMGWYRQAPGKESELVAAITGSGTSTYYADSVKVRFTISRDNAKNTVYLQMNSLKPEDTAVYYCAARSRRPAERMYYWGQGTQVTVSS | high polyreactivity |
| QVQLVDSGGGLVQAGGSLRLSCAASGSTFSDSPMGGYRQAPGKERELVAGITGGGGTYYADSVKGRFTISRDNAKNTVYLQMNSLKPEDTAVYYCAAGYGRRIRYGSEYDYWGQGTQVTVSS | low polyreactivity |
| QVQLVDSGGGLVQAGGSLRLSCAASGSTFSLYAMGWYRQAPGKEREMVASITWGGGSTYADSVKGRFTISRDNAKNTVYLQMNSLKPEDTAVYYCARKFRYRVLYDFAYDHWGLGTQVTVSS | low polyreactivity |
| QVQLVDSGGGLVQAGGSLRLSCAASGSTFSYYAMGWYRQAPGKERELVAAISYSGDSTYYADTVKGRFTISRDNAKNTVYLQMNSLKPEDSAVYYCNADSPFNGNLDRYFATLDDYWGQGTQVTVSS | low polyreactivity |
| QVQLVDSGGGLVQAGGSLRLSCAASGSTFVTYAMRWYRQAPVKERELVAAITEDGASTYYADSVKGRFTISRDNAKNTVYFQLNSLYPEDTAVYYCAADPTYWPVWYVLYDYWGQGTQVTVSS | low polyreactivity |
| QVQLVDSGGGLVQAGGSLRLSCAASGSTFYYYAMGWYRQAPGKERELVAAITYSGGSTTYADSVKGRFTFSRDNAKNTVYLQMNSLKPEDTAVYYCAAYVYRYHRVAYEYWGQGTQVTVSS | high polyreactivity |
| QVQLVDSGGGLVQAGGSLRLSCAASGSTLNVYAMGWSRQAPGKERELVATIRRRGTSTYYADSVKGRFTISRDNAKNTVYLQMNSLKPEDTAVYYCAADTRTYRLSSGSGHWEYDYWGQGTQVTVSS | high polyreactivity |
| QVQLVDSGGGLVQAGGSLRLSCAASGSTVKYAMGWYRQAPGKERELVASIRRSGGSTYYADSVKGRFTISRDNAKITVYLKMNSLNPEDTAVYYCAAPLFRWMDYWGQGTQVTVSS | high polyreactivity |
| QVQLVDSGGGLVQAGGSLRLSCAASGYIFSANAMGWYRQAPGKERELVAVISWNGDGTYYADSVKGRFTISRDNAKNTVYLQMNSLKAEDTAVYYCAALSYAYRSQSRRYGYRFDYWGQGTQVTVSS | high polyreactivity |
| QVQLVDSGGGLVQAGGSLRLSCAATGRIFAGYAMGGYRQAPGKERELVAAISDGGTTNYADSVKGRFTISRDNAKNTVYLQMNILKPEDTAVYYCAKDAAESYRYGYWGQGTQVTVSS | low polyreactivity |
| QVQLVDSGGGLVQAGGSLRLSCAATGTIFAAYVMGWYRQAPGKERELVAAISYSGGGTYYADSVNGRFTISRDNAKNTVYIQMNSLKPEDTAVYYCAADFGVFKSARYYYWGQGTQVTVSS | low polyreactivity |
| QVQLVDSGGGLVQAGGSLRLSCAAYGSTFRGYAMGWYRPAPGKERELVAAISWSGGITYYADSVKGRFTISRDNAKNTVYLQMNRLKPEDTAVYYCAAVWDQVSDRYMLEYCGQGTQVTVSS | high polyreactivity |
| QVQLVDSGGGLVQAGGSLRLSCAPSGTTYPGYAMGWYRQAPGKERELFAAIDRGGSTSYADSVKGRFTISRDNAKITVYLQMNSLKPEDTAFYYCAAEASVVHKSSDYDSWGQCTQVTVSS | low polyreactivity |
| QVQLVDSGGGLVQAGGSLRLSCASSGFIFQYNTMGWSRQAPGKERELVAVITRTGSTNYADSVKGRFTISRDNANNTVYLQMNSLKPEDTAVYYCATSVYSRPRKPRYYYWGQGTQLTVSS | high polyreactivity |
| QVQLVDSGGGLVQAGGSLRLSCSASGFTFAWYAMGWYRQAPGKERELVAAISGSGGRTYYADSVMGRFTISRDNAKNTVYLQMNSLIPEDTAVYYCATRRRYEYYWGQGTQVTVSS | high polyreactivity |
| QVQLVDSGGGLVQAGGSLRLSSAASGFTFVAYAMGGYRQAPGKERELVATITKGGGGTYYADSVKGRFTISRDNAKNTVYLQMNSLKPEDTAVYYCAADRQYRGRTRYVYAPLYYWGHGTQVTVSS | high polyreactivity |
| QVQLVDSGGGLVQAGGSLRLSSAASGYIFVVNAMGWYRPAPGKERELVAAIDWGGGSTYADSVKGRFTISRDNAKNTVYLQMNSLKPEDTAVYYCAADLWPYPTDYWGQGTQVTVSS | low polyreactivity |
| QVQLVDSGGGLVQAGGSLRLSWAASGSTFVYNAMGWYRQAPGKEREFVAGISRSGGSTYYADSVKGRFTISRDNAKNTVYFQMNSLKPEDTAVYYCNARGGLPKYGYWGQGTQVTVSS | high polyreactivity |
| QVQLVDSGGGLVQAGGSLRLTCAASGIIFYYYAMGWYRQAPGKERELVAAITGTGSRTYYADSVKGRFTISRDNAKNTVYLQMNSLKPEDTAVYYCNARSFATGSKVPARGYWGQGTQVTVSS | high polyreactivity |
